According to US20190135918A1 (ICHNOS SCIENCES, published 2019):

Tests used:
[1] = target: T1, soluble extracellular region of human CD38 fused to a 6-His-tag (human, UniProt P28907 43-300); experiment: SPR, equilibrium response, antibody captured on protein G
T1 construct: Expressed with the murine VJ2C leader; also called human CD38 protein; human CD38 antigen

[2] = target: T2, soluble extracellular region of cynomolgus monkey CD38 antigen fused to a 6-His-tag (cynomolgus monkey, UniProt Q5VAN0 45-301); experiment: SPR
T2 construct: also called cynomolgus CD38

[3] = target: T3, F11 (peptide-Fc fusion derived from the extracellular domain of human CD38) (human, UniProt P0DOX5 223-449 = IgG part); experiment: SPR, antibody immobilized, peptide-Fc fusion injected
T3 construct: As F1; by count CD38 residues 173-185

[4] = target: T4, F9 (peptide-Fc fusion derived from the extracellular domain of human CD38) (human, UniProt P0DOX5 223-449 = IgG part); experiment: as above
T4 construct: As F1; by count CD38 residues 147-159

[5] = target: T5, F16 (peptide-Fc fusion derived from the extracellular domain of human CD38) (human, UniProt P0DOX5 223-449 = IgG part); experiment: as above
T5 construct: As F1; by count CD38 residues 238-250

[6] = target: T6, F19 (peptide-Fc fusion derived from the extracellular domain of human CD38) (human, UniProt P0DOX5 223-449 = IgG part); experiment: as above
T6 construct: As F1; by count CD38 residues 277-289

[7] = target: T7, F18 (peptide-Fc fusion derived from the extracellular domain of human CD38) (human, UniProt P0DOX5 223-449 = IgG part); experiment: as above
T7 construct: As F1; by count CD38 residues 264-276

[8] = target: T8, F7 (peptide-Fc fusion derived from the extracellular domain of human CD38) (human, UniProt P0DOX5 223-449 = IgG part); experiment: as above
T8 construct: As F1; by count CD38 residues 121-133

[9] = target: T9, F8 (peptide-Fc fusion derived from the extracellular domain of human CD38) (human, UniProt P0DOX5 223-449 = IgG part); experiment: as above
T9 construct: As F1; by count CD38 residues 134-146

[10] = target: T10, F14 (peptide-Fc fusion derived from the extracellular domain of human CD38) (human, UniProt P0DOX5 223-449 = IgG part); experiment: as above
T10 construct: As F1; by count CD38 residues 212-224

[11] = target: T11, F5 (peptide-Fc fusion derived from the extracellular domain of human CD38) (human, UniProt P0DOX5 223-449 = IgG part); experiment: as above
T11 construct: As F1; by count CD38 residues 95-107

[12] = target: T12, F4 (peptide-Fc fusion derived from the extracellular domain of human CD38) (human, UniProt P0DOX5 223-449 = IgG part); experiment: as above
T12 construct: As F1; by count CD38 residues 82-94

[13] = target: T13, F10 (peptide-Fc fusion derived from the extracellular domain of human CD38) (human, UniProt P0DOX5 223-449 = IgG part); experiment: as above
T13 construct: As F1; by count CD38 residues 160-172

[14] = target: T14, F6 (peptide-Fc fusion derived from the extracellular domain of human CD38) (human, UniProt P0DOX5 195-449 = IgG part); experiment: as above
T14 construct: As F1; by count CD38 residues 108-120 (holds M110)

[15] = target: T15, F3 (peptide-Fc fusion derived from the extracellular domain of human CD38) (human, UniProt P0DOX5 223-449 = IgG part); experiment: SPR, antibody immobilized on the chip, peptide-Fc fusion injected (1000 nM per paragraph 238)
T15 construct: As F1; by count CD38 residues 69-81; also called F3 construct

[16] = target: T16, F13 (peptide-Fc fusion derived from the extracellular domain of human CD38) (human, UniProt P0DOX5 223-449 = IgG part); experiment: SPR, human 767 antibody immobilized on the chip, peptide-Fc fusion injected
T16 construct: As F1; by count CD38 residues 199-211

[17] = target: T17, F2 (peptide-Fc fusion derived from the extracellular domain of human CD38) (human, UniProt P0DOX5 223-449 = IgG part); experiment: as above
T17 construct: As F1; by count CD38 residues 56-68

[18] = target: T18, F15 (peptide-Fc fusion derived from the extracellular domain of human CD38) (human, UniProt P0DOX5 223-449 = IgG part); experiment: as above
T18 construct: As F1; by count CD38 residues 225-237

[19] = target: T19, F12 (peptide-Fc fusion derived from the extracellular domain of human CD38) (human, UniProt P0DOX5 223-449 = IgG part); experiment: as above
T19 construct: As F1; by count CD38 residues 186-198

[20] = target: T20, F17 (peptide-Fc fusion derived from the extracellular domain of human CD38) (human, UniProt P0DOX5 223-449 = IgG part); experiment: as above
T20 construct: As F1; by count CD38 residues 251-263

[21] = target: T21, F1 (peptide-Fc fusion derived from the extracellular domain of human CD38) (human, UniProt P0DOX5 223-449 = IgG part); experiment: as above
T21 construct: 13-residue peptide fused to human IgG1 Fc (CH2-CH3) with an Ala-Ser linker; by count CD38 residues 43-55

[22] = target: T22, F20 (peptide-Fc fusion derived from the extracellular domain of human CD38) (human, UniProt P0DOX5 223-449 = IgG part); experiment: as above
T22 construct: Final peptide of 11 amino acids, else as F1; by count CD38 residues 290-300

Kd [1]: ~300 nM
Kd [2]: ~1200 nM
binding result [3]: no binding (tested: 1000 nM)
binding result [4]: no binding (tested: 1000 nM)
binding result [5]: no binding (tested: 1000 nM)
binding result [6]: no binding (tested: 1000 nM)
binding result [7]: no binding (tested: 1000 nM)
binding result [8]: no binding (tested: 1000 nM)
binding result [9]: no binding (tested: 1000 nM)
binding result [10]: no binding (tested: 1000 nM)
binding result [11]: no binding (tested: 1000 nM)
binding result [12]: no binding (tested: 1000 nM)
binding result [13]: no binding (tested: 1000 nM)
binding result [14]: no binding (tested: 1000 nM)
binding result [15]: binds
binding result [16]: no binding
binding result [17]: no binding
binding result [18]: no binding
binding result [19]: no binding
binding result [20]: no binding
binding result [21]: no binding
binding result [22]: no binding
B1: human 767 antibody (antibody, human IgG1, kappa, V domains shown)
VH: QVQLVESGGGLVQPGGSLRLSCAASGFTFSSYWMSWVRQAPGKGLEWVANIKQDGSEKYYVDSVKGRFTISRDNAKNSLYLQMNSLRAEDTAVYYCAREGRTGYFDYWGQGTLVTVSS
VL: QSVLTQPPSASGTPGQRVTISCSGSTSNIGTNYVYWYQQLPGTAPKLLIYRNDQRPSGVPDRFSGSKSGTSASLAISGLRSEDEADYYCAAWDDSRSGVYAFGTGTKVTVLR
notes: Human IgG1
